Among the data in PMC10580936 are binding values, retold here.

The subject of data set [1] is T1, His-FepR wt (Listeria monocytogenes EGD-e), ORF:2866136e.
T1 sequence: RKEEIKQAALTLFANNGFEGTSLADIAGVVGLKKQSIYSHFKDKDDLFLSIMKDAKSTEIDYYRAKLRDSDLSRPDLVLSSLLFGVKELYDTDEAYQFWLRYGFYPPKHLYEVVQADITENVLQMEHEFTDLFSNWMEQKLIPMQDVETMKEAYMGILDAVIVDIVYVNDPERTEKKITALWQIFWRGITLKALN
The data set is described as follows: EMSA. The settings on record: […] (25 mM Tris, pH 5.5), 0.15 mM BSA, 2.5 mM EDTA, 10% glycerol, 20 mM DTT, 5 min at 25 C. (A gel shift assay detects complexes by their altered migration in electrophoresis.)

Data set [2] has as its system T2, His-FepR L24F L23F (Listeria monocytogenes EGD-e), ORF:2866136e.
T2 sequence: T1 sequence with L23F
The data set is described as follows: EMSA. The settings on record: […] (25 mM Tris, pH 5.5), 0.15 mM BSA, 2.5 mM EDTA, 10% glycerol, 20 mM DTT, 5 min at 25 C.

Changes are numbered by the printed parent chain.

With “CATTCCACTCCTCTCACAAAAACTGACGAACGTTCGTAAGTCATTTTCTCATGAAAAAAATTCTTTGTCAACAAAAAAATCCACTCTTTTAAAAGAGTGGATTCATGGATTTATTTTTCTTCTAAAAATTCGCTAATCAATTCGTATGTC (double strand) [PfepR G-27T]”, in data set [1], the binding result was “no binding”. In the case of “CATTCCACTCCTCTCACAAAAACTGACGACCGTTCGTAAGTCATTTTCTCATGAAAAAAATTCTTTGTCAACAAAAAAATCCACTCTTTTAAAAGAGTGGATTCATGGATTTATTTTTCTTCTAAAAATTCGCTAATCAATTCGTATGTC (double strand) [PfepR wt]”, the binding entry in data set [2] was “no binding”; in data set [1] it was “binds”.
